From article PMC4600334, “Myostatin blockade with a fully human monoclonal antibody induces muscle hypertrophy and reverses muscle atrophy in young and aged mice” (Skeletal Muscle, 2015)

T1: Human myostatin (human, UniProt O14793 267-375)
T1 sequence (looked up): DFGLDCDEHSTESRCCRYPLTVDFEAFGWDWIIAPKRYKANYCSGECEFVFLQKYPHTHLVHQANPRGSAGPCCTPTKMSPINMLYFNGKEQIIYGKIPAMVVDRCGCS

B1: Human growth and differentiation factor 11 (ligand, UniProt O95390 299-407, looked up)
chain: NLGLDCDEHSSESRCCRYPLTVDFEAFGWDWIIAPKRYKANYCSGQCEYMFMQKYPHTHLVQQANPRGSAGPCCTPTKMSPINMLYFNDKQQIIYGKIPGMVVDRCGCS
notes: human growth and differentiation factor 11 (GDF11), purchased from R&D Systems; also called GDF11; GDF-11; source: bought: R&D Systems
B2: Human activin A (ligand, UniProt P08476 311-426, looked up)
chain: GLECDGKVNICCKKQFFVSFKDIGWNDWIIAPSGYHANYCEGECPSHIAGTSGSSLSFHSTVINHYRMRGHSPFANLKSCCVPTKLRPMSMLYYDDGQNIIKKDIQNMIVEECGCS
notes: human activin A (inhibin beta A chain), purchased from R&D Systems; source: bought: R&D Systems
B3: Soluble human ActRIIB-hFc (Fc fusion, UniProt Q13705 19-133, looked up)
chain: SGRGEAETRECIYYNANWELERTNQSGLERCEGEQDKRLHCYASWRNSSGTIELVKKGCWLDDFNCYDRQECVATEENPQVYFCCCEGNFCNERFTHLPEAGGPEVTYEPPPTAP
notes: signal peptide in the construct; extracellular domain (1-133) of the human ActRIIB receptor (ACVR2B), in-frame fusion with human IgG1 Fc-domain; also called ActR2B-hFc; source: produced in Chinese hamster ovary (CHO) cells

Tests used:
[1] = biological target: B3; experiment: SPR; Biacore T200, CM5 chip, 25 °C; ActRIIB-hFc captured through its Fc (32-39 RU) by immobilised goat anti-human Fcγ antibody; ligands injected at 40 to 0.78 nM; HBS-T (10 mM HEPES, 150 mM NaCl, 3 mM EDTA, 0.05 % P20, 10 mg/ml carboxymethyldextran, 0.5 mg/ml BSA, pH 7.4); global fit to a 1:1 model; details: both partners purified
Human activin A [2] = biological target: B2; experiment: as above; details: both partners purified
[3] = biological target: B1; experiment: cell-based or functional assay
Human activin A [4] = biological target: B2; experiment: cell-based or functional assay
Human myostatin = biological target: T1, Human myostatin; experiment: cell-based or functional assay

Kd [1] [pM] | T1/2 [1] [h] | koff [1] [s⁻¹] | kon [1] [M⁻¹ s⁻¹] | Kd (Human activin A [2]) [pM] | koff (Human activin A [2]) [s⁻¹] | kon (Human activin A [2]) [M⁻¹ s⁻¹] | IC50 of inhibition of Smad2/3 luciferase activity in A204/Smad2/3/Luc cells stimulated with a constant 0.4 nM GDF11 [3] [pM] | IC50 of inhibition of Smad2/3 luciferase activity in A204/Smad2/3/Luc cells stimulated with a constant 0.4 nM activin A (Human activin A [4]) [pM] | IC50 of inhibition of Smad2/3 luciferase activity in A204/Smad2/3/Luc cells stimulated with a constant 1 nM myostatin (Human myostatin) [pM] | Binder
14 | 1.87 | 0.000103 | 7.38e+06 | – | – | – | – | – | – | B1
– | 2.43 | – | – | – | – | – | – | – | – | B2
– | – | – | – | 86.6 | 7.94e-05 | 917000 | 460 | 1200 | 570 | B3
